Data: patent US20170015742A1 (published 2017)

B1: 9E8.4E-LS-9A8.12 (PR-1577550) (bispecific antibody, human IgG1, kappa, L234A L235A)
heavy: EVTLRESGPALVKPTQTLTLTCTFSGFSLSTYGMGVGWIRQPPGKALEWLANIWWDDDKYYNPSLKNRLTISKDTSKNQVVLTMTNMDPVDTATYYCARIESIGTTYSFDYWGQGTMVTVSSASTKGPSVFPLAPEVQLVQSGAEVKKPGASVKVSCKASGYTFTNYGMYWVRQAPGQGLEWMGWINTETGKPIYADDFKGRVTMTTDTSTSTAYMELRSLRSDDTAVYYCARVDYDGSFWFAYWGQGTLVTVSSASTKGPSVFPLAPSSKSTSGGTAALGCLVKDYFPEPVTVSWNSGALTSGVHTFPAVLQSSGLYSLSSVVTVPSSSLGTQTYICNVNHKPSNTKVDKKVEPKSCDKTHTCPPCPAPEAAGGPSVFLFPPKPKDTLMISRTPEVTCVVVDVSHEDPEVKFNWYVDGVEVHNAKTKPREEQYNSTYRVVSVLTVLHQDWLNGKEYKCKVSNKALPAPIEKTISKAKGQPREPQVYTLPPSREEMTKNQVSLTCLVKGFYPSDIAVEWESNGQPENNYKTTPPVLDSDGSFFLYSKLTVDKSRWQQGNVFSCSVMHEALHNAYTQKSLSLSPGK
light: EFVLTQSPGTLSLSPGERATLSCERSSGDIGESYVSWYQQKPGQAPRLVIYADDQRPSGIPDRFSGSGSGTDFTLTISRLEPEDFAVYYCQSYDINIDIVFGGGTKVEIKRTVAAPDTQLTQSPSSLSASVGDRVTITCRASESVSTVIHWYQQKPGKQPKLLIHGASNLESGVPSRFSGSGSGTDFTLTISSLQPEDFATYFCQQHWNDPPTFGQGTKLEIKRTVAAPSVFIFPPSDEQLKSGTASVVCLLNNFYPREAKVQWKVDNALQSGNSQESVTEQDSKDSTYSLSSTLTLSKADYEKHKVYACEVTHQGLSSPVTKSFNRGEC
notes: DVD-Ig: outer hBDI-9E8.4E (PDGF), inner hBEW-9A8.12 (VEGF), linkers HG-long/LK-short; Human IgG1 L234A, L235A, H435A with kappa
B2: 9E8.4E-GS-9A8.12 (PR-1578137) (bispecific antibody, human IgG1, kappa, L234A L235A)
heavy: EVTLRESGPALVKPTQTLTLTCTFSGFSLSTYGMGVGWIRQPPGKALEWLANIWWDDDKYYNPSLKNRLTISKDTSKNQVVLTMTNMDPVDTATYYCARIESIGTTYSFDYWGQGTMVTVSSGGGGSGGGGSEVQLVQSGAEVKKPGASVKVSCKASGYTFTNYGMYWVRQAPGQGLEWMGWINTETGKPIYADDFKGRVTMTTDTSTSTAYMELRSLRSDDTAVYYCARVDYDGSFWFAYWGQGTLVTVSSASTKGPSVFPLAPSSKSTSGGTAALGCLVKDYFPEPVTVSWNSGALTSGVHTFPAVLQSSGLYSLSSVVTVPSSSLGTQTYICNVNHKPSNTKVDKKVEPKSCDKTHTCPPCPAPEAAGGPSVFLFPPKPKDTLMISRTPEVTCVVVDVSHEDPEVKFNWYVDGVEVHNAKTKPREEQYNSTYRVVSVLTVLHQDWLNGKEYKCKVSNKALPAPIEKTISKAKGQPREPQVYTLPPSREEMTKNQVSLTCLVKGFYPSDIAVEWESNGQPENNYKTTPPVLDSDGSFFLYSKLTVDKSRWQQGNVFSCSVMHEALHNAYTQKSLSLSPGK
light: EFVLTQSPGTLSLSPGERATLSCERSSGDIGESYVSWYQQKPGQAPRLVIYADDQRPSGIPDRFSGSGSGTDFTLTISRLEPEDFAVYYCQSYDINIDIVFGGGTKVEIKRGGSGGGGSGDTQLTQSPSSLSASVGDRVTITCRASESVSTVIHWYQQKPGKQPKLLIHGASNLESGVPSRFSGSGSGTDFTLTISSLQPEDFATYFCQQHWNDPPTFGQGTKLEIKRTVAAPSVFIFPPSDEQLKSGTASVVCLLNNFYPREAKVQWKVDNALQSGNSQESVTEQDSKDSTYSLSSTLTLSKADYEKHKVYACEVTHQGLSSPVTKSFNRGEC
notes: DVD-Ig: outer hBDI-9E8.4E (PDGF), inner hBEW-9A8.12 (VEGF), linkers GS-H10/GS-L10; Human IgG1 L234A, L235A, H435A with kappa

Tests used:
VEGF-A = target: T1, VEGF-A (human, UniProt P15692 207-395); assay: Biacore SPR; DVD-Ig captured on anti-human Fc, antigen injected
T1 construct: also called hVEGF165
T1 sequence (P15692 other isoform, or with tags, fused parts or gaps limits assumed): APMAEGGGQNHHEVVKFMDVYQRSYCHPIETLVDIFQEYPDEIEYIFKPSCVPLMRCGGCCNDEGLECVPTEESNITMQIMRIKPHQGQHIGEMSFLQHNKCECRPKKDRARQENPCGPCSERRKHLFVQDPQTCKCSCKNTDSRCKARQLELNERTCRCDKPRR
Protocol: (§1) For example, approximately 9000 RU of goat anti-human Fc specific polyclonal antibody (Thermo Fisher Scientific Inc., Rockford, Ill.) diluted in 10 mM sodium acetate (pH 4.5) is directly immobilized across a CM5 research grade biosensor chip using a standard amine coupling kit according to manufacturer's instructions and procedures at 25 μg/ml. Unreacted moieties on the biosensor surface were blocked with ethanolamine. For kinetic analysis, rate equations derived from the 1:1 Langmuir binding model were fitted simultaneously to multiple antigen injections (using global fit analysis) with the use of Scrubber 2 (BioLogic Software), Biacore Biaevaluation 4.0.1 software or Biacore T100 Evaluation software. Purified antibodies or DVD-Ig molecules were diluted in running buffer for capture across goat anti-human Fc reaction surfaces. Antibodies or DVD-Ig molecules to be captured as a ligand (1 μg/ml) were injected over reaction matrices at a flow rate of 10 μl/minute. During the assay, all measurements were referenced against the capture surface alone (i.e., with no captured antibody or DVD-Ig molecule). […] The equilibrium dissociation constant KD (M) of the reaction between antibodies and the target antigen was then calculated from the kinetic rate constants by the following formula: KD=Koff/Kₒₙ. Binding was recorded as a function of time and kinetic rate constants were calculated.

PDGF-BB = target: T2, PDGF-BB (human, UniProt P01127 82-190, limits assumed); assay: as above
T2 construct: also called human PDGF-BB; hPDGF-BB
T2 sequence (P01127 82-190 limits assumed): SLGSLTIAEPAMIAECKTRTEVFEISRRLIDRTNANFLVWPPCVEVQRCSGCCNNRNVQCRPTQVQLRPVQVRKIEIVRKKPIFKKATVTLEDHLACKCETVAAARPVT
Protocol: as §1

Binder	Kd (VEGF-A)	kon (VEGF-A)	Kd (PDGF-BB)	kon (PDGF-BB)
B1	0.23 nM	640000 M⁻¹ s⁻¹	0.005 nM	5e+07 M⁻¹ s⁻¹
B2	0.38 nM	470000 M⁻¹ s⁻¹	0.0088 nM	5e+07 M⁻¹ s⁻¹
